Reference: the nanobody polyreactivity screen of Harvey et al. (2022)

Test: yeast display, Sf9 membrane polyspecificity reagent, FACS + sequencing; frameworks hold sequencing errors
Outline: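 Galactose-induced (36–48 hours) yeast carrying a synthetic nanobody display library were exposed to 10% biotinylated, detergent-solubilized Sf9 membrane reagent at 4 °C for 1 hour. FACS followed streptavidin microbead enrichment, using low and high (top ~1%) gates for expression (anti-HA) and reagent binding (streptavidin). Colony PCR, MiSeq 2 × 250 sequencing and CDR-length filtering followed. Labels for polyreactivity reflect the gate of origin.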

QVQLVESGGGLVQAGGSLRLSCAASGRIFSSYVMGLYRQAPGKERELVAAIRWSGGSTYYADSVKGRFTISRDNAKNTVYLQMNSLKPEDTAVYYCAAEVYRYYATGYGYWGQGTQVTVSS
polyreactivity (PSR sort gate): high polyreactivity

QVQLVESGGGLVQAGGSLSLSCAASGSTFKHYAMGWYRQAPGKERELVAAISSRGGSTHYADSVKGRFTISRDNAMNTVYLQMNSLKPEDTAVYYCARDTDPQSSRSSDYDYWGQGTHVTVSS
polyreactivity (PSR sort gate): low polyreactivity

QVQLVESGGGLVQAGGSLRLSCAASGRIFKSYAMGWYRQAPGKERELVASISYTGGSTYYADSVKGRFTISRDNAKNTVYLQMNSLKPEDTAVYYCAAKRVRSAGSYGYWGQGTQVTVSS
polyreactivity (PSR sort gate): low polyreactivity

QVQLVESGGGLVQAGGSLRLSCAASGRIFVIYGMGWYRQAPGKERELVAAIRWTGGSTYYADSVKGRFTISRDNAQNTVYLQMNSLQPEDTAVYYCNAGSDRAIWPTHDYWGQGTQVTVSS
polyreactivity (PSR sort gate): low polyreactivity

QVQLVESGGGLVQAGGSLRLSCAASGRTFYTNAMGWYRQAPGKERELVAGISWGDGNTYYADSVKGRFTISRDNAKNTVYLQMNSLKPEDTAVYYCAVTYIILWSYSHTEFDYWGQGNQVTVSS
polyreactivity (PSR sort gate): low polyreactivity

QVQLEESGGGLVQAGGSLRLSCAASGRPCWLMLWDGIDRRLGKKGSWLPLTASTYYADSVKGRFTISRDNAKNTVYLQMNSLKPEDTAVYYCAADLYYGDYRTLPIADEYDYWGQGTQVTVSS
polyreactivity (PSR sort gate): low polyreactivity

QVQLEESGGGLVQAGGSLRLSCAASGSIFLGYAMGWYRQAPGKERELVAAITTVGSTNYADSVKGRFTISRDNAKNTVYLQMNSVKPEDTAVYYCAAGWVGWGEKYTLDYWGQGTQVTVSS
polyreactivity (PSR sort gate): high polyreactivity

QVQLVESGGGLVQAGGSLRLSCAASGSIFTNNAMGWYRQAPRKERELVAAISWSGGSTYYADSVKGRFTISRDNAKITVYLQMISLKPEDTAVSYCAARYLYYGGRPGYDSWGQGTQVTVSS
polyreactivity (PSR sort gate): high polyreactivity

HVQLVESAGGLVQEGGSLRVSCAASGFTFSFYAMGGYRQAPGKERELVAAISWNSGSTYYADSVKGRFTISRDNAKNTVYLQMNSLKPADTAVYYCAADVQRYRGITYYYWGQGTPVTVSS
polyreactivity (PSR sort gate): high polyreactivity

QVQLVESGGCLVQAGGSLRLSCAASGFTFWRNVMGWYRQAPGKERELVAVISRGGSTNYADSVKGRFTISRDNAMNTVYLQMNSLKPEDTAVYYCAKYARGPSKVDYWGQGTQVTVSS
polyreactivity (PSR sort gate): high polyreactivity

QVQLVESGGGLVQAGGSLRLSCAASGFTFGGNVMGWYRQAPGKESELVAAITYSGGSTNYADSVKGRFTISRDNAKNTVYLQMNSLKPEDTAVYYCAAGYSYVYWSESAYVYWGQGTQVSVSS
polyreactivity (PSR sort gate): low polyreactivity

QVQLVESGGGLVQAGGSLRLSCAASGRTLYGNVMGWYRQAPGKERELVAAISRRGGSTSYADSVKGRFTISRDNAKNTVYLQMNSLKPEDTAVYYCAAGRQRYAFKYYYWGQGTQVTVSS
polyreactivity (PSR sort gate): high polyreactivity

QVQLVESGGGLVQAGGSLRLSCAASGSIFSWYAMGWYRQAPGKERELVAAITSDGGTNYADSVKGRFTISRDNAKNTVYLQMNRLKPEDTAVYYCAADYWYSWRRSHYAHRYGYWGQGTQVTVSS
polyreactivity (PSR sort gate): low polyreactivity

QVQLVESGGGLVQAGGSLRLSCAASGSIFWYYAMGWYRQAPGKERELVAAITGSGVRTYYADSVKGRFTISRDNAKNTVYLQMNSLKPEDTAVYYCNAVSSHSFYFYGDHNYWGQGTQVTVSS
polyreactivity (PSR sort gate): low polyreactivity

QVQLVESGGGIVQAGGSLRLSCAASGSTFLTNTMGWYRQAPGTESELVAAITLRGGRTYYADSVKGRFTISRDNAKNTVYLQMNSLKPEDTAVYYCNARNYYYPSDRDYWGQGTQVTGSS
polyreactivity (PSR sort gate): low polyreactivity

QVQLVESWGGLVQAGGSLRLSCAASGRIFGRYAMGWYRQAPGKERELVAAIRSTGSTNYADSVKGRFTISRDNAKNTVYLQMNSLKPEDTAVYYCAAYRRRTYAVNKEGGYWGQGTQVTVSS
polyreactivity (PSR sort gate): high polyreactivity

QVQLVESGGGLVQAGGSLRLSCAASGSTFSHNTMGWYRQAPGKERELVAAISSRGSSTYYADSVKGRFTISRDNAKNTVYLQMNSLKPEDTAVYYCAARYLRGTWAGLGYDYWGQGTQVTVSS
polyreactivity (PSR sort gate): low polyreactivity

QVQHVESGGGLVQAGGSLRLSCAASGSTIEDYAMGWYRQAPGKERELVAAISFSGARTYYADSVKGRFTISRDKAKNTVYLQMNSLKPEDTAVYYCNAVSGIVQRYDYWGQGTQVTVSS
polyreactivity (PSR sort gate): high polyreactivity

QVQLVESGGGLVQAGGSLRLSCAASGITFDYYSMGWYRQAPGTERELVAAISWGGGSTYYADSVKGRFTISRDNAKNTVYLQMNSLKPEDTAVYYCAADIVSSPSSYVPPGDYWGQGTQVTVSS
polyreactivity (PSR sort gate): low polyreactivity

QVQLVESGGGLVQAGGSLRLSCAASGYNFPLYSMGWYTQAPGKERELVADINIGGASTYYADSVKGRFTISRDNAKNTVYLQMNSLKPEDTAVYDCAKEYFDGYFPTFDYDYWGKGTQVTVSS
polyreactivity (PSR sort gate): low polyreactivity

QVQLVESGGGLVQAGGSLRLSCAASGITFGVYARGWYRQAPGKEREFVADIDRTRGSTYADSVKGRFTISRDNAMNTVYLQMNSLKPEDTAVYYCAAGWGFRFYYWYWGQGTHVTVSS
polyreactivity (PSR sort gate): high polyreactivity

QVQLVESGGGLVQAGGSLRLSCAASGIIFVRYTMGWYRQAPGKERELVAAISSSGGSTYYADSVKGRFTISRDNAKNTVYLQLNSLKPEDTAVYYCIAEIRDNNVGYDTDYDYWGQGSQVTVSS
polyreactivity (PSR sort gate): high polyreactivity

QVQLVESGGGLVQAGGSLRLSCAASATFYYYAMGWSRQAPGKERELVAAISYSGGRTYYADSVKGRFTISRDNAKNTVYLQMNSLKPEDTAVYYCNALYRKTPSYGADDYWGQGTQVTVSS
polyreactivity (PSR sort gate): high polyreactivity

QVQLVESGGGLVQAGGSLRLSCAASGRTFFYNAMGWYRQAPGKERELVATITWTGDSTYADSVKGRFTISRDNAKNTVYLQMNSLKPEDTAVYYCAAGKPVILTGDYDYWGQGTQVTVSS
polyreactivity (PSR sort gate): low polyreactivity

QVQLVESGGGLDQAGGSLRLSCAASGITFYGYAMGWYRQAPGKEREFVAVITSTARTNYADSVKGRFTISRDNAKNTVYLQMNSLKPEDTAVYYCAARRVVRRDRYGSMDYWGQGTQVTVSS
polyreactivity (PSR sort gate): high polyreactivity

QVQLVESGGGLVQAGGSLRLSCAASGIIFSGYAMGWYRQAPGKERELVAAITWGGGSTYYADSVKGRFTISRDNAKNTVYLQMNSLKPEDTAVYYCAATWWYEHVRYYSWGQGTQVTVSS
polyreactivity (PSR sort gate): high polyreactivity

QVQLVESGGCLVQAGGSLRLSCAASGSSFSRYTMGWYSQAPGKERELVAVISDSSGRTYYADSVKGRFTISRDTAKNTVYLQMNSLKPEDTAVYYCAAEYSDIYEYCGQGTQVTVSS
polyreactivity (PSR sort gate): low polyreactivity

QVQLVESGGALVQAGGSLSLSCAASGSIFVGNAMGWYRQAPGKERELVAAINGGGTNYADSVKGRFTFSRDNAKNTVYLQMNSLKPEDTAVYYCAAPVRSNDSAYLHRDNDYWGQGTQVTVSS
polyreactivity (PSR sort gate): low polyreactivity

QVQLVESVGGLVQAGGSLRLSSAASGFTIVGNTMGWSRQAPGKERELVASINTNGGSTYYADSVKGRFTISRDNAKNTVYLQINSLKPEDTAVYYCNARSWYPYDYWGQGTQVTVSS
polyreactivity (PSR sort gate): low polyreactivity

QVQLVESGGGLVQAGGSLRLSCAASGSTFKYNTMGWYRQAPGKESELVARISWSGTRTYYADSVKGRFTISRYNAKNTVYLQMNSLKPEDTAVYYCAKVSYFWSPYGYDSCGQGTQVTVSS
polyreactivity (PSR sort gate): high polyreactivity

QVQLVESGGGLVQAGGSLRLSCAASGFIFYGYAMGWYRQAPGKERELVAGISTVGSTNYADSVKGRFTISRDNAKNTVYLQMNSLKPEDSAVYYCAVVDVEDHVGHWGQGTQVTVSS
polyreactivity (PSR sort gate): low polyreactivity

QVQLVESGGGLVQAGGSLRLSCASSGLIIDYYAMGWYRQAPGKERELVAAITSSSGITYYADSVKGRFTISRDNAKNTVYLQMNSLKPEDNAVYYCAAYTTYKLYEYAYWGQGTQVTVSS
polyreactivity (PSR sort gate): low polyreactivity

QVQLVESGGGLVQAGGSLRLSCAASGSTFSWYAMGWYRQAPGKERELVASISFSGGDTSYADSVKGRFTISRDNAKNTVYLQMNSLKPEDTEVYYCGKEYKYETDTIFDYWGQGTQVTVSS
polyreactivity (PSR sort gate): low polyreactivity
